# Measurements taken from patent publication US20190175744A1 (Merck Sharp & Dohme, published 2019).
# Starred links: 1 amine or outer side, 2 acyl side, 3 side chain; linkers in the order of their positions; H or OH if unused. Non-standard residues stand in square brackets, D forms with d. Groups on a side chain read outwards from the residue. No end group written: not given here. *: point of attachment. C20 diacid = O=C(O)CCCCCCCCCCCCCCCCCCC(=O)*; Lys(N3) = [N-]=[N+]=NCCCC[C@H](N)C(=O)O; γGlu = O=C(O)[C@H](CCC(=O)[*:2])N[*:1]; Met(O2) = CS(=O)(=O)CC[C@H](N)C(=O)O; AEEA = NCCOCCOCC(=O)O; Aib = CC(C)(N)C(=O)O
# B1: PEP31 (peptide)
# peptide: H[Aib]QGTFTSDYSKYLDARAAK([AEEA-AEEA-γGlu-C20 diacid])DFV[Lys(N3)]WL[Met(O2)]DT-NH2
# modifications: N-terminus assumed
# SMILES: CC(C)C[C@H](NC(=O)[C@H](Cc1ccc(O)cc1)NC(=O)[C@H](CCCCN)NC(=O)[C@H](CO)NC(=O)[C@H](Cc1ccc(O)cc1)NC(=O)[C@H](CC(=O)O)NC(=O)[C@H](CO)NC(=O)[C@@H](NC(=O)[C@H](Cc1ccccc1)NC(=O)[C@@H](NC(=O)CNC(=O)[C@H](CCC(N)=O)NC(=O)C(C)(C)NC(=O)[C@@H](N)Cc1c[nH]cn1)[C@@H](C)O)[C@@H](C)O)C(=O)N[C@@H](CC(=O)O)C(=O)N[C@@H](C)C(=O)N[C@@H](CCCNC(=N)N)C(=O)N[C@@H](C)C(=O)N[C@@H](C)C(=O)N[C@@H](CCCCNC(=O)COCCOCCNC(=O)COCCOCCNC(=O)CC[C@H](NC(=O)CCCCCCCCCCCCCCCCCCC(=O)O)C(=O)O)C(=O)N[C@@H](CC(=O)O)C(=O)N[C@@H](Cc1ccccc1)C(=O)N[C@H](C(=O)N[C@@H](CCCCN=[N+]=[N-])C(=O)N[C@@H](Cc1c[nH]c2ccccc12)C(=O)N[C@@H](CC(C)C)C(=O)N[C@@H](CCS(C)(=O)=O)C(=O)N[C@@H](CC(=O)O)C(=O)N[C@H](C(N)=O)[C@@H](C)O)C(C)C
# B2: PEP32 (peptide)
# peptide: HXQGTFTSXKSKYLDERAAQDFVXWLXDT
# modifications: D-Ser (s) at 2; alpha-methyl-L-Asp (αMD) at 9; Lys 10 K(γEγEC16); Nle(εN3) at 24; L-methionine sulphone (2) at 27; C-terminal amide
# B3: PEP34 (peptide)
# peptide: HXQGTFTSDKSKYLDERAAQXFVXWLXDT
# modifications: D-Ser (s) at 2; Lys 10 K(γEγEC16); alpha-methyl-L-Asp (αMD) at 21; Nle(εN3) at 24; L-methionine sulphone (2) at 27; C-terminal amide
# B4: PEP35 (peptide)
# peptide: HXQGTFTSDKSKYLDERAAQDXVXWLXDT
# modifications: D-Ser (s) at 2; Lys 10 K(γEγEC16); alpha-methyl-L-Phe (αMF) at 22; Nle(εN3) at 24; L-methionine sulphone (2) at 27; C-terminal amide
# B5: PEP74 (peptide)
# peptide: HXQGTFTSDKSKYLDERAAQDFVXWLLDT
# modifications: HsQGTFTSDK(γEγEC16)…le(ϵN3)WLLDT-NH2 (s=D-serine; K(γEγEC16) at 10; Nle(ϵN3)=azidonorleucine at 24; NH2=C-terminal amide)
# B6: PEP37 (peptide)
# peptide: HXQGTFTSDKSKYLDERAAQDFVXWXXDT
# modifications: D-Ser (s) at 2; Lys 10 K(γEγEC16); Nle(εN3) at 24; alpha-methyl-L-Leu (αML) at 26; L-methionine sulphone (2) at 27; C-terminal amide
# Key:
# Assay in all cases: cell-based or functional assay
# [1] = target: human glucagon receptor (human, UniProt P47871 26-477)
# [2] = target: human GLP-1 receptor (human, UniProt P43220 24-463)
# [3] = target: human GLP-1 receptor (GLP1R) (human, UniProt P43220 24-463)
# [4] = target: human Glucagon receptor (GCGR) (human, UniProt P47871 26-477)
Binder,hGCGR_EC50 (cAMP activity assay) [1] [nM],hGLP1R EC50 (cAMP activity assay) [2] [nM],"Incretin Receptor Assay (cAMP) EC50, GLP1R (Human) [3] [nM]","Incretin Receptor Assay (cAMP) EC50, GCGR (Human) [4] [pM]"
B1,4.24,1.38,–,–
B2,0.06,0.04,–,–
B3,0.05,0.05,–,–
B4,0.05,0.05,–,–
H[dS]QGTFTSDK([γGlu-γGlu-C16])SKYLDERAAQDFVQWLLDT-NH2 [Control molecule PEP76 (Table 7)],–,–,0.007,9
B5,–,–,0.05,–
B6,0.06,0.04,–,–
HXQGTFTSDKSKYLDERAAQDFVXWLLDT (D-Ser (s) at 2; Nle(εN3) at 24; C-terminal amide) [PEP69],0.31,0.16,–,–
H[dS]QGTFTSDKSKYLDERAA[Lys(N3)]DFVQWLLDT-NH2 [PEP71],0.12,0.06,–,–
HXEGTFTSDKSKYLDERAAQDFVXWLLDT (D-Ser (s) at 2; Lys 10 K(γEγEC16); Nle(εN3) at 24; C-terminal amide) [PEP75],> 5,0.07,–,–
